Columns and labels:
[1] = molecular target: MspA-((Del-L74/G75/D118/L119)G1A/D56N/E59F/L88N/D90N/D91N/Q126R/D134R/E139K)8
[2] = molecular target: MspA-((Del-L74/G75/D118/L119)D56F/E59R/L88N/D90N/D91N/Q126R/D134R/E139K)8

B1: T4 Dda-E94C/C109A/C136A/K199L/A360C (protein)
chain: MTFDDLTEGQKNAFNIVMKAIKEKKHHVTINGPAGTGKTTLTKFIIEALISTGETGIILAAPTHAAKKILSKLSGKEASTIHSILKINPVTYECNVLFEQKEVPDLAKARVLICDEVSMYDRKLFKILLSTIPPWATIIGIGDNKQIRPVDPGENTAYISPFFTHKDFYQCELTEVKRSNAPIIDVATDVRNGKWIYDLVVDGHGVRGFTGDTALRDFMVNYFSIVKSLDDLFENRVMAFTNKSVDKLNSIIRKKIFETDKDFIVGEIIVMQEPLFKTYKIDGKPVSEIIFNNGQLVRIIEAEYTSTFVKARGVPGEYLIRHWDLTVETYGDDEYYREKIKIISSDEELYKFNLFLGKTCETYKNWNKGGKAPWSDFWDAKSQFSKVKALPASTFHKAQGMSVDRAFIYTPCIHYADVELAQQLLYVGVTRGRYDVFYV
- % bases missed in construct X [1]: the lowest % bases missed in construct X
- slips forward per kilobase [1]: less than 5 slips forward per kilobase
- slips forward per kilobase [2]: less than 5 slips forward per kilobase

Source: patent publication US20240060126
